Results taken from US20210238276A1 (INTEGRAL MOLECULAR, published 2021).
Substitutions are numbered along the chain they refer to. Values belong to the molecule of their own block, whether it stands above or below them.

What was measured:
Test in all cases: flow cytometry, alanine-scan library in HEK-293T
hsGLUT4 G414A = biological target: T1, hsGLUT4 G414A (human, UniProt P14672 1-509)
T1 sequence: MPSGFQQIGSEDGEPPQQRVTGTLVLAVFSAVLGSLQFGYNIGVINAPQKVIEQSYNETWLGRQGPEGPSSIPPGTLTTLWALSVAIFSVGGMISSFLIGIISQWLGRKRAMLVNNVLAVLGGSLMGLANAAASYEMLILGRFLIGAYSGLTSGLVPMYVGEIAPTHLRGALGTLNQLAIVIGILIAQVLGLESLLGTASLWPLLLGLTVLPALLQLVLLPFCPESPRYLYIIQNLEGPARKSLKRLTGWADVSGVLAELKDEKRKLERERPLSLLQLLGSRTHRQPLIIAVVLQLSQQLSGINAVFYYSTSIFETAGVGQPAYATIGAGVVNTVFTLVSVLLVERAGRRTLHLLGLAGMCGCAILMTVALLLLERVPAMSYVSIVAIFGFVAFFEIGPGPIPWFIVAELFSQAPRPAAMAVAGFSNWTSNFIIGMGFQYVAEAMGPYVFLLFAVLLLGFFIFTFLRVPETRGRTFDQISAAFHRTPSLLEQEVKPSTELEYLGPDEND
Procedure: (§1) Because of the state-dependence of the isolated MAbs, we next wished to understand the mechanism by which each MAb could recognize GLUT4 in its different conformations. The residues required for binding of each MAb were determined using shotgun mutagenesis comprehensive alanine scanning (Davidson E & Doranz B J (2014) A High-Throughput Shotgun Mutagenesis Approach to Mapping B-cell Antibody Epitopes. Immunology, which is hereby incorporated by reference in its entirety). All residues of hsGLUT4 were individually mutated to alanine, with existing alanines changed to serines. Mutations were obtained for 508 of the 509 residues of GLUT4 (excluding the initiating methionine). The entire mutation library was transfected into human HEK-293T cells in a 384-well array format (one clone per well) and assessed for immunoreactivity using high-throughput flow cytometry.
(§2) HEK-293T cells were transfected by CaPO₄ with plasmids in 6-well culture plates (Falcon) at 750,000 cells/well. At 48 hours post transfection, cells were stained with anti-V5 and anti-GLUT4 MAbs (purified scFv, 2 μg/ml) followed by biotinylated goat anti-mouse or human antibody (1:500) and streptavidin-PerCP (1:500). Fluorescence was detected using an Intellicyt high-throughput flow cytometer (HTFC; Intellicyt, Albuquerque, N. Mex.). For cell permeabilization, cells were treated with saponin at 0.1% in PBS for 20 minutes. To discriminate intact (live) and permeabilized (dead) cells without the use of detergent, propidium iodide (PI) was added to HEK-293T cells at 1 ug/ml just prior to flow cytometry. Where indicated, cytochalasin B (Sigma) was used at a final concentration of 10 uM and phloretin (Sigma) was used at a final concentration of 100 uM, each added in 10% NGS for 30 minutes prior to antibody staining as well as included with the primary antibody.

hsGLUT4 E507A = biological target: T2, hsGLUT4 E507A (human, UniProt P14672 1-509)
T2 sequence: T1 sequence with A414G, E507A
Procedure: as §1, §2

hsGLUT4 Q298A = biological target: T3, hsGLUT4 Q298A (human, UniProt P14672 1-509)
T3 sequence: T1 sequence with Q298A, A414G
Procedure: as §1, §2

hsGLUT4 F405A = biological target: T4, hsGLUT4 F405A (human, UniProt P14672 1-509)
T4 sequence: T1 sequence with F405A, A414G
Procedure: as §1, §2

% of binding to wild type GLUT4 (hsGLUT4 G414A): 78%
% of binding to wild type GLUT4 (hsGLUT4 E507A): 127%
% of binding to wild type GLUT4 (hsGLUT4 Q298A): 87%
% of binding to wild type GLUT4 (hsGLUT4 F405A): 107%
Molecule: 1F8 (antibody)

% of binding to wild type GLUT4 (hsGLUT4 G414A): 83%
% of binding to wild type GLUT4 (hsGLUT4 E507A): 5%
% of binding to wild type GLUT4 (hsGLUT4 Q298A): 107%
% of binding to wild type GLUT4 (hsGLUT4 F405A): 106%
B1: AB101 (scFv)
scFv: ALTQPSSVSANPGETVKITCSGSSNSYGWYQQKSPGSAPVTVIYYNDKRPSDIPSRFSGSKSDSTHTLTITGVRAEDEAVYFCGSYDSTYVGIFGAGTTLTVLGQSSRSSGGGGSSGGGGSAVTLDESGGGLQTPGGTLSLVCKASGFTFSSNAMGWVRQAPGKGLEWVAGISSDGRYTKYGSAVKGRATISRDNGQSTVRLQLNNLRAEDTGTYFCAKAFGNNYRRIYAGQIDAWGHGTEVIVSS
notes: Chicken-derived clone used as a control; the four lead clones were tested as scFv-human IgG1 Fc; also called MAb AB101

B2: AB111 (Fc fusion)
scFv: ALTQPSSVSANPGETVKITCSGSGSWYGWFQQKSPGSAPVTVIYSNDKRPSDIPSRFSGSKSGSTSTLTITGVQVEDEAVYYCGNWDIFGAGTTLTVLGQSSRSSGGGGSSGGGGSAVTLDESGGGLQTPGGALSLVCKASGFTFSSHGMGWVRQAPGKGLEWVASISTGRYTFYAPAVKGRATISRDNGQSTVRLQLNNLRAEDTATYYCTKCAGLNGCGGGEIDAWGHGTEVIVSS
notes: Bivalent scFv-Fc; also called MAb AB111; not shown: Fc fragment of human IgG1, cloned in frame with the scFv
% of binding to wild type GLUT4 (hsGLUT4 G414A): 109%
% of binding to wild type GLUT4 (hsGLUT4 E507A): 119%
% of binding to wild type GLUT4 (hsGLUT4 Q298A): 145%
% of binding to wild type GLUT4 (hsGLUT4 F405A): 118%

B3: AB108 (Fc fusion)
scFv: ALTQPSSVSANLGGTVKITCSGSSGSYGWYQQKAPGSAPVTLIYRNDKRPSDIPSRFSGSESGSTGTLTITGVQAEDEAVYFCGGYDSSAGYAAFGAGTTLTVLGQSSRSSGGGGSSGGGGSAVTLDESGGGLQTPGGALSLVCKASGFTFSSHGMGWVRQAPGKGLEWVGSISTGRYTFYAPAVKGRATISRDNGQSTLRLQLNNLRAEDTGTYYCTKCAGLNGCGGGEIDAWGHGTEVIVSS
notes: Bivalent scFv-Fc; also called MAb AB108; not shown: Fc fragment of human IgG1, cloned in frame with the scFv
% of binding to wild type GLUT4 (hsGLUT4 G414A): 80%
% of binding to wild type GLUT4 (hsGLUT4 E507A): 53%
% of binding to wild type GLUT4 (hsGLUT4 Q298A): 78%
% of binding to wild type GLUT4 (hsGLUT4 F405A): 103%
